Assay: soluble on expression in E. coli; label from the status in PepcDB or PDB records

Sequence | soluble on expression in E. coli
MGSDKIHHHHHHMENESKLVEVDEKHLQFRVAREAFVSEQILSGEYEKIFDRCWLYVGHVSEFSKPGDFVTRTIARRNLLVTMGTDNRINAFFNTCPHRGATVCRDRAGNSKNFQCFYHGWVFGCDGNLKSQPGKDRYCADFIASGAGNLVSVPRFDIYAGFCFVSFNAEVEPLPDYLAGAKEYLDLVSRYSESGMAISSGTQEYAIRANWKLLVENSVDGYHAVSTHATYLDYLKNTNGSLSSTKLEGTSYDLGNGHAVLEYTAPWGRPIASWVPLWGEQGKKEIDQIYARLVELHGEDMADRMAHKNRNLLIFPNLVVNDIMAITVRTFYPQAPNYMLVNGWSLAPREESEWAKKFRLSNFLEFLGPGGFATPDDVEALESCQNGFSNYRLVPWSDISKGMGKASPNYDDELQMRAFWTRWNQYISGSPSPQATIRRLPSATAA | not soluble
SGFLEQRLGHCLRQMAEKGLEALLVTHLTNSYYLTGFSGTAATVLITAKRRVLITDSRYTLLAKASVEGFDIIESRTPLKVVAELLEADQIDCLGFEDQVSFSFYQAMQAELSGITLLAQSGFVEHLR | not soluble
MGSDKIHHHHHHMSKAPDFEGLAMFAKVAEERSFAAAARVLGLSVATVSRGVSRLEERLGARLFNRTSRRLALTDFGHRLAERASRLYRDAEDAENAARELSASPRGLVRLAVPMSFGLRWVAPLLPDFFKLYPDVSIDMHLSDAVVDLIGEGFDAALRIAVLPDSSLVARRLCSIAPFIVAAPSYLARHGRPSTPRDLDAHHCLGYAYRPRQDVWHFSNAAGDEEVVTPSGPLRVTNSDALVPTVLAGIAIAELPEFIASEYLADGRLQAILTDWTLPRGALYFVTPSARARPAKVEAVAGFMAAHLSRPSWQPINP | not soluble
MGIKQYSQEELKEMALVEIAHELFEEHKKPVPFQELLNEIASLLGVKKEELGDRIAQFYTDLNIDGRFLALSDQTWGLRSWYPYDQLDEETQPTVKAKKKKAKKAVEEDLDLDEFEEIDEDDLDLDEVEEELDLEADDFDEEDLDEDDDDLEIEEDIIDEDDEDYDDEEEEIK | not soluble
MSLNIFNSVKKAEIHVHLEATITPDLCKKFAKRNNHEIPEEMFGSEYAYQWDDFYDFIKKYDIVTSVIHTPEDYFELTYEYLKDCAANNVLYVEAMISSTHAKEKGMTYNSFIEGVYEASKKAEEDFGIVSRYIMNGIRHLGPESVQGTAEEVLNNPHPCLVGFGLAGDELHFPPNLFVETFDMLKKENFPITVHAGEWDGPVNIRNAINLLHPTRLGHGVRSIEDPDLVKEIIDKDIILETCPTSNVATKIYKDYIDHPVKTLFDQGVKVTVNSDDPPFFKCTINGEYKVMEDLGEGHHHHHH | soluble
SAHSAAAVPLGALEQGCPIRVEHDRRRRQFTVRLNGCHDRAVLLYEYVGKRIVDLQHTEVPDAYSGRGIAKHLAKAALDFVVEEDLKAHLTCWYIQKYVKENPLPQYLERLQP | soluble
MLRTEHYAFLPCISRALEERDSLGIRRELRARQQRLSMQQSRSKLGRVCVTGANSPLGQELVGALTRTPDPSLRPDAIGVIGARDPIESHSAGAGLHFPGPGVDFLECAATDLEHYNPRTLFSINDDDLGLRRRSIFRENQVVIDLLRAQGETNEPRSKTRLVLVTLLGCGDSEDAIPSQAFDVLRPLLLELSRVEQYVRESGLPYTIVRPGALEHGDADSRAIVSESKVGFGTIHRSTLAHLLLNVAASEKAVNKTLMALDMNRLLVAAPYVRPFEVWESPPFEVFDL | soluble
GSAQLLKSVFVKNVGWATQLTSGAVWVQFNDGSQLVMQAGVSSISYTSPDGQTTRYGENEKLPEYIKQKLQLLSSILLMFSNPTPVFQ | soluble
VEPSEENSKDCVVCQNGTVNWVLLPCRHTCLCDGCVKYFQQCPMCRQFVQESFAL | soluble
MGSDKIHHHHHHMVEKLKPRYSVVWTNKIAEVPQNAWNALAMPLKTPFLEWEWLNNLETSQSATAKTGWLPNHLTLWRDRTLIAAAPLYLKGHSSGEFVFDHQWAELADRIGVQYYPKLLGMTPFTPAEGYRFLIAPGEDEDEITAMMVHEIDTFCSKNRISGCHFLYVDPQWRPMLERHGFTTWLHHSYVWENAGFKTFDDYLKVFNANQRRNIKRERKAVEKAGLRLQPLSGDEIPYSLFPSMYQFYADTCDKFGWWGSKYLTQRFFEQLHNDYRHRVLFVAAYSEEDNSHPLGMSFCLFKGDKLYGRYWGSFQEIDCLHFDACYYAPIEWAIANGIQIFDPGAGGRHKKRRGFPAMPNHSLHRFYNNRLGQIIRPYIKEVNQLEQQEIEAINAELPFSNRDS | not soluble
GPGSMDEFVYNRCSLNPIHWVLMLKGCLVDLFFSVRPINFSYSRVGMTNLAGERDQAACLREIRRAVRIIEGRKRTVATGTNKDSFQDMDSRCHTPERPLRLHLVLFGFSRGATTTFYTAMKLPPELATYVSLVVVEAAFDTLHNVIESSCWFPSFVLWFFRTFCDYSGEDAYKYDRNQIHLRCPIAFVMSVKDTRVPNELTQRLIDNVKADCPQIPAVEVLQLKHSRHPLMAVGNREDQDAYVAFMEGLYDRYCN | not soluble
MILERVEIVGFRGINRLSLMLEQNNVLIGENAWGKSSLLDALTLLLSPESDLYHFERDDFWFPPGDINGREHHLHIILTFRESLPGRHRVRRYRPLEACWTPCTDGYHRIFYRLEGESAEDGSVMTLRSFLDKDGHPIDVEDINDQARHLVRLMPVLRLRDARFMRRIRNGTVPNVPNVEVTARQLDFLARELSSHPQNLSDGQIRQGLSAMVQLLEHYFSEQGAGQARYRLMRRRASNEQRSWRYLDIINRMIDRPGGRSYRVILLGLFATLLQAKGTLRLDKDARPLLLIEDPETRLHPIMLSVAWHLLNLLPLQRIATTNSGELLSLTPVEHVCRLVRESSRVAAWRLGPSGLSTEDSRRISFHIRFNRPSSLFARCWLLVEGETETWVINELARQCGHHFDAEGIKVIEFAQSGLKPLVKFARRMGIEWHVLVDGDEAGKKYAATVRSLLNNDREAEREHLTALPALDMEHFMYRQGFSDVFHRVAQIPENVPMNLRKIISKAIHRSSKPDLAIEVAMEAGRRGVDSVPTLLKKMFSRVLWLARGRAD | not soluble
MIVTSLEDLRSRLRAYVSENGLRHTPERYSILEVAYNLKKIFTPDDLFDLTRENGLPVSLSTVYNTLTLLERCGIVLRLPSPETKYQYLMASFAEQCPLLFCTECAQFSTYYRRNVKSILADKDLRPPRFSYRQAIICLYGICDKCRKKQSALKKAADKAAPKKKK | not soluble
MGSSHHHHHHSSGRENLYFQGHMTRTNLITGFLGSGKTTSILHLLAHKDPNEKWAVLVNEFGEVGIDGALLADSGALLKEIPGGCMCCVNGLPMQVGLNTLLRQGKPDRLLIEPTGLGHPKQILDLLTAPVYEPWIDLRATLCILDPRLLLDEKSASNENFRDQLAAADIIVANKSDRTTPESEQALQRWWQQNGGDRQLIHSEHGKVDGHLLDLPRRNLAELPASAAHSHQHVVKKGLAALSLPEHQRWRRSLNSGQGYQACGWIFDADTVFDTIGILEWARLAPVERVKGVLRIPEGLVRINRQGDDLHIETQNVAPPDSRIELISSSEADWNALQSALLKLRLATTA | soluble
MGSDKIHHHHHHMTKNHKISVDQLQVGTHISLPVSWKDHPFLFSSFKIKDAAQIELIRHLGITEVFFNPEKSDTQPLALDAIQGDSIDLDDMVDASDTDEMMLLKNEMEVKKQDSIDKQQQMRRSINKTEKQFDRSVAMMRSVVSKLGSRPLNAVNDAKELIHNLTDLLLNSDNLVLHLMGDAKPEEGIYHHSLNVSVLCMLLGKGLGWSREEIELIGIGALFHDVGKLKIPSNILNKRTPLSVPEVNFIKQHPLMSINFLKLADNFPAAAEPLIANHHEFLDGSGSPQGLKADKLDNLSQLIAVVNEYDNLCNGNMQTKGKTPFAALSFLYKNYTKKLNKEYVGRMIKTLGIYPPGCIIELSSGQFGLVMSVNLKNILFPRIMVYDPQVPKDQAPIIDLEQEGIKIVRCLPPAALPENIFKYLNPREKVSYGLGSES | not soluble

Reference: the DeepSol protein solubility set
